The values that follow come from the supplement of paper PMC9170038.

The data set has as its system MS2 coat protein. Put plainly: apparent KD of MS2 coat protein; designed switch direction (-1 OFF switch, 1 ON switch): 1; higher = weaker reporter binding. The gist of the method:
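The buffer was Tris-HCl pH 7.5 with KCl, MgCl2, BSA, DTT, tRNA and Tween-20. In it, SNAP-549-labelled MS2 coat protein was titrated in doubling steps from 0.7 or 1.5 nM to 3 µM over chip-bound RNA switches transcribed by stalled E. coli RNA polymerase on Illumina chips. Apparent KD is the per-design median over clusters of curve fits to normalised fluorescence.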

[1] abbreviates: input ligand: microRNA oligo, concentration not stated.

Regarding “UUGCGGGAUUAAGGAUAUUGAGUACAUAUGUUUAACAUGAGGAUCACCCAUGUGGGUUGCGGUAUCGAGAAGGUAACUUACUAC [salish99_SSNG2_r04_804] (Eterna round: R96, puzzle: Same State NG 2)”, the “apparent KD of MS2 coat protein” value by setting is: (input ligand: FMN 200 uM) 92.9 nM; under setting [1], 79.3 nM; (input ligand: none) 96.3 nM.

“AAAAUGGUAUGUUACAUGAGGAUCACCCAUGUACCGUCAUCUGAGGAUAUGGUGAUGUAGAAGAAUCAGAAGGCAGACAUUUAA [AK SSNG3-V2-25] (Eterna round: R96, puzzle: Same State NG 3)”: the “apparent KD of MS2 coat protein” value reads like this: (input ligand: FMN 200 uM) 17.3 nM; under setting [1], 20 nM; (input ligand: none) 34.1 nM.

Regarding “GCUAGAAAUAAAGCCAACAUGAGGAUCACCCAUGUAUGUUGGUAGGAUAUCGUAUGCAAAGCAUACGAGAAGGGCUAAUCUAGC [Mat - Same State NG 3 - JL Mod - D66] (Eterna round: R96, puzzle: Same State NG 3)”, the “apparent KD of MS2 coat protein” value was determined as 90.8 nM (input ligand: FMN 200 uM), 57.4 nM under setting [1] and 90.2 nM (input ligand: none).

Regarding “AUAGUUUCCGAAGGAUAUGAUGAGGAUCACCCAUCAGAAGGUUGGCUAUUGGGUGGACAUGAGGAUCACCCAUGUCUUUCUGUU (Eterna round: R96, puzzle: Same State NG 1)”, the “apparent KD of MS2 coat protein” value (input ligand: FMN 200 uM) is 29.7 nM, the “apparent KD of MS2 coat protein” value under setting [1] amounted to 39.1 nM and the “apparent KD of MS2 coat protein” value (input ligand: none) amounted to 53.6 nM.

“AGGGAGGAAGCUGAGGAUAUCGUAAGGAGGACAUGAGGAUCACCCAUGUGUAUAGAAUUGGAGGACGAGAAGGCAGAGGAGUGGG [JR_SS2_Sub052] (puzzle: Same State 2)”: the “apparent KD of MS2 coat protein” value (Eterna round: R95, input ligand: FMN 200 uM) amounted to 25.5 nM; the “apparent KD of MS2 coat protein” value (Eterna round: R95, input ligand: microRNA oligo, concentration not stated) came out at 29.3 nM; the “apparent KD of MS2 coat protein” value (Eterna round: R95, input ligand: none) was determined as 25.6 nM.

In the case of “GUUACAUGAGGAUCACCCAUGUAUGUGUGGGAGUAAGUGUCUUAGGAUAUCUAUUAUUAAAAUUAAGAGAAGGAAGAUUGUUGU [JMF's solution 18] (Eterna round: R96, puzzle: Same State NG 3)”, the “apparent KD of MS2 coat protein” value (input ligand: FMN 200 uM) was 115 nM, the “apparent KD of MS2 coat protein” value under setting [1] was determined as 98.1 nM and the “apparent KD of MS2 coat protein” value (input ligand: none) stood at 103 nM.

Consider “AUUGCUAGCACAGGAUAUCAUGCGAAAAUUGCGUGAGAAGGGUGGACACUGUCAUUCACGGAGGACAUGAGGAUCACCCAUGUC [SameState NG1 #79] (Eterna round: R96, puzzle: Same State NG 1)”, for which the “apparent KD of MS2 coat protein” value came to 77.1 nM (input ligand: FMN 200 uM), 59 nM under setting [1] and 74.9 nM (input ligand: none).

Consider “AUUGCUUACGCAGGAUAUGAUGCGAAAAUUGCGUCAGAAGGGUGAAGUGACUCGUAGCAACAAGACAUGAGGAUCACCCAUGUC [SameState NG1 #93] (Eterna round: R96, puzzle: Same State NG 1)”, for which the “apparent KD of MS2 coat protein” value came out at 28.2 nM (input ligand: FMN 200 uM), 26.4 nM under setting [1] and 42.1 nM (input ligand: none).

Take “GCUACGGCAGUAGGAUAUGUAGGAUAUGGCGAGAGCUAAGCUUGGAAGUCACUUCAGCCAGAAGGACAGAAGGACACCGUGAGG [pwkr ssNG2 2FMN + F9.16] (Eterna round: R96, puzzle: Same State NG 2)”: the “apparent KD of MS2 coat protein” value reads like this: (input ligand: FMN 200 uM) 125 nM; under setting [1], 22.5 nM; (input ligand: none) 24.7 nM.

Consider “CUAUCUACAGGUUGCAGUGCUCGUCUUAUACAUGAGGAUCACCCAUGUUAUAGCCCGGUGCUUGCGCUGGGCUGAUU [JL ViennaUCT Tearor mod 2] (Eterna round: R96, puzzle: Sensor for hsa-mir-208a)”, for which the “apparent KD of MS2 coat protein” value (input ligand: FMN 200 uM) was 40.9 nM, the “apparent KD of MS2 coat protein” value under setting [1] amounted to 16.4 nM and the “apparent KD of MS2 coat protein” value (input ligand: none) was found to be 41.1 nM.

For “GCUCGCACGAUGACCCACAUGAGGAUCACCCAUGUGCGUGGGCAGGAUAUCUAGAUUAAGGAUGUAGAGAAGGGUUGAGCGAGC [SameState NG3 #25] (Eterna round: R96, puzzle: Same State NG 3)”, the “apparent KD of MS2 coat protein” value runs as follows: (input ligand: FMN 200 uM) 555 nM; under setting [1], 136 nM; (input ligand: none) 302 nM.

For the sequence “AGCUAGUACCGAGGAUAUACAUACAUGAGGAUCACCCAUGUAUACAUGAUUUAAUGAGACUACAUGUAGAAGGCGGUACUAGCA [JL SSNG2 1.23] (Eterna round: R96, puzzle: Same State NG 2)”, the “apparent KD of MS2 coat protein” value (input ligand: FMN 200 uM) stood at 22 nM, the “apparent KD of MS2 coat protein” value under setting [1] was determined as 68.6 nM and the “apparent KD of MS2 coat protein” value (input ligand: none) stood at 79.1 nM.

Regarding “GUCCAAAACACAGGAUAUCCCAGUCAUGAACUGGGAGAAGGGUGGCCACAUGAGGAUCACCCAUGUGAAGUGCGAGAGGCACGA [Arquarais] (Eterna round: R96, puzzle: Same State NG 1)”, the “apparent KD of MS2 coat protein” value by setting is: (input ligand: FMN 200 uM) 253 nM; under setting [1], 595 nM; (input ligand: none) 937 nM.
